Assay results as given in article PMC4105619, “Identification and Characterisation of Aedes aegypti Aldehyde Dehydrogenases Involved in Pyrethroid Metabolism” (PLoS ONE, 2014).

Columns and labels:
purified protein [1] = substrate: NC(=O)c1ccc[n+]([C@@H]2O[C@H](COP(=O)(O)OP(=O)(O)OC[C@H]3O[C@@H](n4cnc5c(N)ncnc54)[C@H](O)[C@@H]3O)[C@@H](O)[C@H]2O)c1; assay: purified protein; format: biochemical, Aedes aegypti; conditions: saturating PBald, 33 mM phosphate pH 8.2, 1 mM EDTA, 0.1 mM pyrazole, 37°C, varied: cofactor
purified protein [2] = substrate: O=Cc1cccc(Oc2ccccc2)c1; assay: purified protein; format: biochemical, Aedes aegypti; conditions: saturating NAD+, 33 mM phosphate pH 8.2, 1 mM EDTA, 0.1 mM pyrazole, 37°C

B1: ALDH14080 (Aedes aegypti) (protein)
chain: MANPNQEIKYTKLFINNQFVDSQSGKTFPTLNPATGQKIVDVAEGDKADVDIAVQAAKTAFARSSAWRQMDASARGKLLHKLADLMERDINVLANLESLDNGKAFGDSVFDMNCAIDTFRYYAGWADKIHGSTVPSDGPVMTYIRKEPVGVVGQIIPWNYPVLMLTWKWAPALATGCTLVLKPAEQTPLSALYMAALSKEAGFPDGVINVVNGYGPTVGAAIVNHAEIRKVAFTGSVETGRLITEGSSKSNLKRVSLELGGKSPLVVFDDFDVDEAVEIAHNAIFANHGQNCCAGSRTFVQEGVYDKFVAKAAEMAKARKVGDAFAEGTQQGPQVDEEQLNKILGFFESASKEGAKLQTGGKRHGNVGYFVEPTVYSDVTDEMRIAREEIFGPVQSILKFKTLDEVIERANRTEYGLAAGVLTNNLNNALVFSNAVEAGSVWVNCYDYVMPTTPFGGFKQSGHGRELGYDGIELYTETKTVTIKLPSKV
notes: full length, N-terminal His6 fusion from pET100-D/TOPO, E. coli BL21 Star (DE3), HisTrap Ni purified, about 65 kDa on SDS-PAGE; cDNA from PMD-R strain
- Km (purified protein [1]): 193.8 ± 34.5 nM

B2: ALDH9948 (Aedes aegypti) (protein)
chain: MANANPEIKYTQLFINNEFVDAVSGKVFPTVNPSTGKKIVDIAEGDKADVDLAVQAAKAAFQRSSKWRQMDASARGKLIYKLADLMERDMHQIASLESLDNGKPYMSAVYDVYGSMNCLRYYAGWTDKVCGETVPSDGPHLTYTRKEPFGVVGQIIPWNYPLLMLAWKWGPALAAGCTIVMKPAEQTPLTALYMCSLVKEAGFPPGVVNMVPGYGPTAGNAITMHPDIRKVAFTGSVEVGKIVMAGAASNLKKVSLELGGKSPLVICDDVDVNEAAQIAYTGVFENMGQCCIAATRTFVQEGIYDAFVQKATELAKGRKVGNPFSQGIQHGPQIDDIQFKKILGFIETGKKEGAKLETGGVQVGEEGYFIEPTVFSNVTDEMTIAKEEIFGPVQSIIKFKTLDEAIERANATSFGLAAGIVTKNLNNALTFSNAVEAGSVWVNTYLAVSNQAPFGGYKQSGVGREMGKEGIEEYLETKTVSIKLPSKV
notes: as for B1
- Km (purified protein [1]): 139.1 ± 27.9 nM
- Km (purified protein [2]): 153.8 ± 30.8 nM
